Here are results for 6 molecules from US20020010135A1 (Amgen, published 2002).

B1: wild type human NT-3 (r-metHuNT-3) (ligand)
chain: MYAEHKSHRGEYSVCDSESLWVTDKSSAIDIRGHQVTVLGEIKTGNSPVKQYFYETRCKEARPVKNGCRGIDDKHWNSQCKTSQTYVRALTSENNKLVGWRWIRIDTSCVCALSRKIGRT
B2: NT-3(1-119)R61A,K64D (ligand)
chain: MYAEHKSHRGEYSVCDSESLWVTDKSSAIDIRGHQVTVLGEIKTGNSPVKQYFYETRCKEAAPVDNGCRGIDDKHWNSQCKTSQTYVRALTSENNKLVGWRWIRIDTSCVCALSRKIGRT
B3: NT-3(1-117)R61A,K64D (ligand)
chain: MYAEHKSHRGEYSVCDSESLWVTDKSSAIDIRGHQVTVLGEIKTGNSPVKQYFYETRCKEAAPVDNGCRGIDDKHWNSQCKTSQTYVRALTSENNKLVGWRWIRIDTSCVCALSRKIG

human trkC receptor protein, sequence (Q16288 32-839): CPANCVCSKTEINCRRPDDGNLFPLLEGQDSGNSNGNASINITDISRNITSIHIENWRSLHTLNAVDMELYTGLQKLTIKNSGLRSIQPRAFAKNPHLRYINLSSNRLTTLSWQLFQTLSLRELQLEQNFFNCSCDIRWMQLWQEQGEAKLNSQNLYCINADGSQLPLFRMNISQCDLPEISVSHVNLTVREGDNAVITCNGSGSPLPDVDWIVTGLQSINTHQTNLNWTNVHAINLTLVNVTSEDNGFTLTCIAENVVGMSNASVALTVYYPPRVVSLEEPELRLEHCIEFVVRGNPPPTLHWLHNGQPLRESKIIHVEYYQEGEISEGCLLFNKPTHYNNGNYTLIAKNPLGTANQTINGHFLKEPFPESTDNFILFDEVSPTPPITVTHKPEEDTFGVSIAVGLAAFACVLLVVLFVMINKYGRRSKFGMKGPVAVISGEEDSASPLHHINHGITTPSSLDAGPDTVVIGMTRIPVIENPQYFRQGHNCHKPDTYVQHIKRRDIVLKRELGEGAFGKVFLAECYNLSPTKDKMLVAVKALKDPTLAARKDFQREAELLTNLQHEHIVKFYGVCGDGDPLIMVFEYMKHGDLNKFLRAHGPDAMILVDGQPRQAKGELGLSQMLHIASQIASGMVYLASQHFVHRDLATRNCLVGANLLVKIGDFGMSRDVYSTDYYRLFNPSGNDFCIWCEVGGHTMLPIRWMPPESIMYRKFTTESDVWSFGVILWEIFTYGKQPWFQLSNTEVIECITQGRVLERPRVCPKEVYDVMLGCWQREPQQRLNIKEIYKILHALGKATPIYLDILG

The first assay has as its target human trkC receptor protein (human, UniProt Q16288 32-839). In words: cell-based or functional assay.
As to B1, the “Percentage of expected activity (%), in vitro mitogenic bioassay” value amounted to 72%.
As to B2, the “Percentage of expected activity (%), in vitro mitogenic bioassay” value came out at 524%.
Same read-out and setting: in the case of B3 it was 328%.

A further assay has as its target trkB receptor. In words: cell-based or functional assay.
“Wild type BDNF (from UniProt P23560 129-247) (ligand)” returned a Bioactivity (mg/mg), MTS mitogenic bioassay of 0.61 mg/mg.
Still for that read-out and setting: in the case of “BDNF, K65D, K73D, K95A, R97A (from UniProt P23560 129-247) (ligand)” it was 1.24 mg/mg; in that of “BDNF, P60E, K65D, K73D, K95A (from UniProt P23560 129-247) (ligand)”, 0.61 mg/mg.
